Measurements: patent publication US20190032056A1 (VITRISA THERAPEUTICS, published 2019)

Target: complement Factor D present in C1q-depleted human serum (human, UniProt P00746 26-253)
Test: cell-based or functional assay

Chain of complement Factor D present in C1q-depleted human serum (P00746 26-253 limits assumed): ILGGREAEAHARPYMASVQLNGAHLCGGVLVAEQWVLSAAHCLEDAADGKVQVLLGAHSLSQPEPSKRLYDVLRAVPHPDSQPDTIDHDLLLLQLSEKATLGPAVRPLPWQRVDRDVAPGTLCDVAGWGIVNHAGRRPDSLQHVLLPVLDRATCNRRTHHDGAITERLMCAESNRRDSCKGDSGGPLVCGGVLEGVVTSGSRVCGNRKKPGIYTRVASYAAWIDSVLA

B1: anti-fD Fab with an amino acid sequence of heavy chain variable region according to SEQ ID NO:7 and light chain variable region according to SEQ ID NO:8 (Fab)
heavy: EVQLVQSGPELKKPGASVKVSCKASGYTFTNYGMNWVRQAPGQGLEWMGWINTYTGETTYADDFKGRFVFSLDTSVSTAYLQISSLKAEDTAVYYCERGGVNNWGQGTLVTVSSASTKGPSVFPLAPSSKSTSGGTAALGCLVKDYFPEPVTVSWNSGALTSGVHTFPAVLQSSGLYSLSSVVTVPSSSLGTQTYICNVNHKPSNTKVDKKVEPKSCDKTHT
light: DIQVTQSPSSLSASVGDRVTITCITSTDIDDDMNWYQQKPGKVPKLLISGGNTLRPGVPSRFSGSGSGTDFTLTISSLQPEDVATYYCLQSDSLPYTFGQGTKVEIKRTVAAPSVFIFPPSDEQLKSGTASVVCLLNNFYPREAKVQWKVDNALQSGNSQESVTEQDSKDSTYSLSSTLTLSKADYEKHKVYACEVTHQGLSSPVTKSFNRGEC
IC50 inhibiting alternative complement in human serum (fD-dependent lysis of rabbit red blood cells): 3.3 nM
